In patent US20160257732A1 (published 2016):
Residue numbers refer to the chain shown, from its start. Where “and” joins values, the source holds several entries; their conditions need not be identical. Equal entries are not always repeated. Where two headings read alike, the source gives them in different places.

B1: Antibody 10 (antibody, V domains shown)
VH: QVQLQQSGPGLVKPSQTLSLTCAISGDSVSSNSATWNWIRQSPSRGLEWLGRTYYRSKWYNDYADFLKRRITINPDTSNNEVSLRLTSVTPDDTALYYCARGGHITVFGVNIDAFDVWGQGTMVTVSS
VL: DIQMTQSPSSLSASVGDRITISCRTSQSLRSYLHWYQQKPGKAPKLLIYASSTLQSGVPSRFSGSGSGTDFTLTISNLQPEDFATYYCQLSRTFGQGTKVEIK
B2: Antibody 5 (antibody, V domains shown)
VH: QVQLQQSGPGLVKPSQTLSLTCAISGDRVSSNSAVWNWIRQSPSRGLEWLGRTYYRSKWYYDYAESVKSRIVIDPDTSKNQVSLQLNSVTPEDSAIYYCARGGHITVFGLNIDAYDIWGQGAMVTVSS
VL: DIQMTQSPSSLSASVGDRVTISCRAQSLSSYLHWYQQKPGQPPKLLIYAATTLQSGVPSRFSGSGSGTDFTLTISTFQAEDVATYYCQQSRTFGQGTKVEIK
B3: Antibody 11 (antibody, V domains shown)
VH: QVQLQQSGPGLVKPSQTLSLTCAISGDSVSSYNAVWNWIRQSPSRGLEWLGRTYYRSGWYNDYAESVKSRITINPDTSKNQFSLQLNSVTPEDTAVYYCARSGHITVFGVNVDAFDMWGQGTMVTVSS
VL: B1 VL with I19V, S22T, R30S, L33T, S51A, T53S, L54R, Q55L, N77S, L90Q
B4: Antibody 13 (antibody, V domains shown)
VH: B3 VH
VL: B1 VL with I19V, S22T, R30S, L33D, S51A, T53S, L54R, Q55L, N77S, L90Q
B5: Antibody 15 (antibody, V domains shown)
VH: B3 VH with Y32N, G58K, M123T
VL: B1 VL with I19V, S22T, R30S, L33T, S51A, T53S, L54R, Q55G, N77S, L90Q

Tests used:
Test in all cases: cell-based or functional assay
[1] = biological target: HA of A/Fort Monmouth/1/47 (H1N1) (influenza A virus)
[2] = biological target: HA of ca A/Beijing/262/95 (H1N1) (influenza A virus)
[3] = biological target: HA of A/Wyoming/03/03 (H3N2) (influenza A virus)
[4] = biological target: HA of ca A/Vietnam/1203/04 (H5N1) (influenza A virus)
[5] = biological target: HA of ca A/Panama/2007/99 (H3N2) (influenza A virus)
[6] = biological target: HA of A/Wisconsin/67/05 (H3N2) (influenza A virus)
[7] = biological target: HA of ca A/teal/Hong Kong/W312/97 (H6N1) (influenza A virus)
[8] = biological target: HA of ca A/Netherlands/219/03 (H7N7) (influenza A virus)
[9] = biological target: HA of ca A/Perth/16/09 (H3N2) (influenza A virus)
[10] = biological target: T1, HA of ca A/chicken/Hong Kong/G9/97 (H9N2) (influenza A virus)
[11] = biological target: HA of A/Kawasaki/9/86 (H1N1) (influenza A virus)
[12] = biological target: HA of A/Victoria/3/75 (H3N2) (influenza A virus)
[13] = biological target: HA of ca A/Texas/36/91 (H1N1) (influenza A virus)
[14] = biological target: HA of ca A/New Caledonia/20/99 (H1N1) (influenza A virus)
[15] = biological target: T2, HA of ca A/Brit. Columbia/CN-6/04 (H7N3-LP) (influenza A virus)
[16] = biological target: HA of ca A/swine/Missouri/06 (H2N3) (influenza A virus)
[17] = biological target: HA of ca A/Hong Kong/213/03 (H5N1) (influenza A virus)
[18] = biological target: HA of ca A/Sydney/5/97 (H3N2) (influenza A virus)
[19] = biological target: HA of A/New Jersey/8/76 (H1N1) (influenza A virus)
[20] = biological target: HA of A/Hong Kong/8/68 (H3N2) (influenza A virus)
[21] = biological target: HA of A/Fort Monmouth/1/47 (H1N1) (influenza A virus); remark: listed apart in the source
[22] = biological target: HA of ca A/Beijing/262/95 (H1N1) (influenza A virus); remark: listed apart in the source
[23] = biological target: HA of ca A/Vietnam/1203/04 (H5N1) (influenza A virus); remark: listed apart in the source
[24] = biological target: HA of ca A/Panama/2007/99 (H3N2) (influenza A virus); remark: listed apart in the source
[25] = biological target: HA of ca A/Japan/57 (H2N2) (influenza A virus)
[26] = biological target: HA of A/Wisconsin/67/05 (H3N2) (influenza A virus); remark: listed apart in the source
[27] = biological target: HA of ca A/teal/Hong Kong/W312/97 (H6N1) (influenza A virus); remark: listed apart in the source
[28] = biological target: HA of ca A/Netherlands/219/03 (H7N7) (influenza A virus); remark: listed apart in the source
[29] = biological target: HA of ca A/Perth/16/09 (H3N2) (influenza A virus); remark: listed apart in the source
[30] = biological target: T1, HA of ca A/chicken/Hong Kong/G9/97 …; remark: listed apart in the source
[31] = biological target: HA of A/Kawasaki/9/86 (H1N1) (influenza A virus); remark: listed apart in the source
[32] = biological target: HA of A/Victoria/361/11 (H3N2) (influenza A virus)
[33] = biological target: HA of A/Victoria/3/75 (H3N2) (influenza A virus); remark: listed apart in the source
HA of virus H1-BS10 = biological target: HA of virus H1-BS10
[34] = biological target: HA of ca A/Texas/36/91 (H1N1) (influenza A virus); remark: listed apart in the source
[35] = biological target: HA of ca A/New Caledonia/20/99 (H1N1) (influenza A virus); remark: listed apart in the source
[36] = biological target: T2, HA of ca A/Brit. Columbia/CN-6/04 …; remark: listed apart in the source
[37] = biological target: HA of ca A/mallard/Alberta/89/85 (H6N2) (influenza A virus)
[38] = biological target: HA of ca A/swine/Missouri/06 (H2N3) (influenza A virus); remark: listed apart in the source
[39] = biological target: HA of ca A/Hong Kong/213/03 (H5N1) (influenza A virus); remark: listed apart in the source
[40] = biological target: HA of ca A/Sydney/5/97 (H3N2) (influenza A virus); remark: listed apart in the source
[41] = biological target: HA of A/New Jersey/8/76 (H1N1) (influenza A virus); remark: listed apart in the source
[42] = biological target: HA of A/Hong Kong/8/68 (H3N2) (influenza A virus); remark: listed apart in the source
[43] = biological target: HA of swine-origin A/Minnesota/11/2010 H3N2 virus (influenza A virus)

Binder | Neutralization IC50, H1-FM47 [21] [µg/mL] | Neutralization IC50, H1-BJ95 [22] [µg/mL] | Neutralization IC50, H5-VM04 [23] [µg/mL] | Neutralization IC50, H3-Pa99 [24] [µg/mL] | Neutralization IC50, H2-JP57 [25] [µg/mL] | Neutralization IC50, H3-WI05 [26] [µg/mL] | Neutralization IC50, H6-HK97 [27] [µg/mL] | Neutralization IC50, H7-NLD03 [28] [µg/mL] | Neutralization IC50, H3-Perth09 [29] [µg/mL] | Neutralization IC50, H9-HK97 [30] [µg/mL] | Neutralization IC50, H1-Kaw86 [31] [µg/mL] | Neutralization IC50, H3-VC11 [32] [µg/mL] | Neutralization IC50, H3-Vic75 [33] [µg/mL] | Neutralization IC50, H1-BS10 (HA of virus H1-BS10) [µg/mL] | Neutralization IC50, H1-TX91 [34] [µg/mL] | Neutralization IC50, H1-Ncal99 [35] [µg/mL] | Neutralization IC50, H7-BC04 [36] [µg/mL] | Neutralization IC50, H6-AB85 [37] [µg/mL] | Neutralization IC50, H2-MO06 [38] [µg/mL] | Neutralization IC50, H5-HK03 [39] [µg/mL] | further results
B1 | – | – | – | – | – | – | – | – | – | – | – | – | – | – | – | – | – | – | – | – | Neutralization IC50, H1-FM47 [1]: 1.11 µg/mL; Neutralization IC50, H1-BJ95 [2]: 4.46 µg/mL; Neutralization IC50, H3-Wy03 [3]: 1.52 µg/mL; Neutralization IC50, H5-VM04 [4]: 2.21 µg/mL; Neutralization IC50, H3-Pa99 [5]: 18.7 µg/mL; Neutralization IC50, H3-WI05 [6]: 4.46 µg/mL; Neutralization IC50, H6-HK97 [7]: 1.05 µg/mL; Neutralization IC50, H7-NLD03 [8]: 3.8 µg/mL; Neutralization IC50, H3-Perth09 [9]: 2.56 µg/mL; Neutralization IC50, H9-HK97 [10]: 1.76 µg/mL; Neutralization IC50, H1-Kaw86 [11]: 1.62 µg/mL; Neutralization IC50, H3-Vic75 [12]: 0.91 µg/mL; Neutralization IC50, H1-TX91 [13]: 0.48 µg/mL; Neutralization IC50, H1-Ncal99 [14]: 1.26 µg/mL; Neutralization IC50, H7-BC04 [15]: 3.59 µg/mL; Neutralization IC50, H2-MO06 [16]: 1.04 µg/mL; Neutralization IC50, H5-HK03 [17]: 1.6 µg/mL; Neutralization IC50, H3-Syd97 [18]: 9.29 µg/mL; Neutralization IC50, H1-NJ76 [19]: 0.15 µg/mL; Neutralization IC50, H3-HK68 [20]: 0.85 µg/mL
B2 | – | – | – | – | – | – | – | – | – | – | – | – | – | – | – | – | – | – | – | – | Neutralization IC50, H1-FM47 [1]: 0.86 µg/mL; Neutralization IC50, H1-BJ95 [2]: 5.06 µg/mL; Neutralization IC50, H3-Wy03 [3]: 0.77 µg/mL; Neutralization IC50, H5-VM04 [4]: 2.6 µg/mL; Neutralization IC50, H3-Pa99 [5]: 16.7 µg/mL; Neutralization IC50, H3-WI05 [6]: 2.83 µg/mL; Neutralization IC50, H6-HK97 [7]: 2.27 µg/mL; Neutralization IC50, H7-NLD03 [8]: 4.14 µg/mL; Neutralization IC50, H3-Perth09 [9]: 2.22 µg/mL; Neutralization IC50, H9-HK97 [10]: 2.43 µg/mL; Neutralization IC50, H1-Kaw86 [11]: 1.01 µg/mL; Neutralization IC50, H3-Vic75 [12]: 0.57 µg/mL; Neutralization IC50, H1-TX91 [13]: 0.76 µg/mL; Neutralization IC50, H1-Ncal99 [14]: 0.85 µg/mL; Neutralization IC50, H7-BC04 [15]: 5.35 µg/mL; Neutralization IC50, H2-MO06 [16]: 2.38 µg/mL; Neutralization IC50, H5-HK03 [17]: 1.18 µg/mL; Neutralization IC50, H3-Syd97 [18]: 3.03 µg/mL; Neutralization IC50, H1-NJ76 [19]: 1.64 µg/mL; Neutralization IC50, H3-HK68 [20]: 0.39 µg/mL
B3 | 0.43 | 1.01 | 0.57 | 2.18 | 0.31 | 1.07 | 0.4 | 0.94 | 0.17 | 0.36 | 0.53 | 0.85 | 0.46 | 1.15 | 0.11 | 0.66 | 0.71 | 0.24 | 0.6 | 0.21 | Neutralization IC50, H3-Syd97 [40]: 1.53 µg/mL; Neutralization IC50, H1-NJ76 [41]: 0.13 µg/mL; Neutralization IC50, H3-HK68 [42]: 0.46 µg/mL; Neutralizing activity IC50, swine-origin A/Minnesota/11/2010 [43]: 1.6 µg/mL and 1.5 µg/mL
B4 | 0.5 | 1.86 | 0.56 | 2.62 | 0.47 | 1.19 | 0.55 | 2.45 | 0.28 | 0.29 | 0.41 | 1.03 | 0.43 | 1.23 | 0.09 | 0.77 | 0.96 | 0.29 | 0.57 | 0.17 | Neutralization IC50, H3-Syd97 [40]: 2.18 µg/mL; Neutralization IC50, H1-NJ76 [41]: 0.12 µg/mL; Neutralization IC50, H3-HK68 [42]: 0.44 µg/mL; Neutralizing activity IC50, swine-origin A/Minnesota/11/2010 [43]: 1.6 µg/mL and 1.4 µg/mL
B5 | 0.35 | 1.81 | 0.28 | 3.39 | 0.33 | 1.3 | 0.33 | 1.3 | 0.5 | 0.35 | 0.48 | 1.29 | 0.35 | 1.89 | 0.13 | 0.79 | 1.25 | 0.19 | 0.83 | 0.05 | Neutralization IC50, H3-Syd97 [40]: 1.79 µg/mL; Neutralization IC50, H1-NJ76 [41]: 0.25 µg/mL; Neutralization IC50, H3-HK68 [42]: 0.5 µg/mL; Neutralizing activity IC50, swine-origin A/Minnesota/11/2010 [43]: 0.9 µg/mL and 2.7 µg/mL
